From publication PMC5732302 (2017) come the findings set out here.

Bounds are passed on as bounds.

In the experiment the target is dynein (Saccharomyces cerevisiae, UniProt P36022).
Sequence of dynein (P36022 whole entry): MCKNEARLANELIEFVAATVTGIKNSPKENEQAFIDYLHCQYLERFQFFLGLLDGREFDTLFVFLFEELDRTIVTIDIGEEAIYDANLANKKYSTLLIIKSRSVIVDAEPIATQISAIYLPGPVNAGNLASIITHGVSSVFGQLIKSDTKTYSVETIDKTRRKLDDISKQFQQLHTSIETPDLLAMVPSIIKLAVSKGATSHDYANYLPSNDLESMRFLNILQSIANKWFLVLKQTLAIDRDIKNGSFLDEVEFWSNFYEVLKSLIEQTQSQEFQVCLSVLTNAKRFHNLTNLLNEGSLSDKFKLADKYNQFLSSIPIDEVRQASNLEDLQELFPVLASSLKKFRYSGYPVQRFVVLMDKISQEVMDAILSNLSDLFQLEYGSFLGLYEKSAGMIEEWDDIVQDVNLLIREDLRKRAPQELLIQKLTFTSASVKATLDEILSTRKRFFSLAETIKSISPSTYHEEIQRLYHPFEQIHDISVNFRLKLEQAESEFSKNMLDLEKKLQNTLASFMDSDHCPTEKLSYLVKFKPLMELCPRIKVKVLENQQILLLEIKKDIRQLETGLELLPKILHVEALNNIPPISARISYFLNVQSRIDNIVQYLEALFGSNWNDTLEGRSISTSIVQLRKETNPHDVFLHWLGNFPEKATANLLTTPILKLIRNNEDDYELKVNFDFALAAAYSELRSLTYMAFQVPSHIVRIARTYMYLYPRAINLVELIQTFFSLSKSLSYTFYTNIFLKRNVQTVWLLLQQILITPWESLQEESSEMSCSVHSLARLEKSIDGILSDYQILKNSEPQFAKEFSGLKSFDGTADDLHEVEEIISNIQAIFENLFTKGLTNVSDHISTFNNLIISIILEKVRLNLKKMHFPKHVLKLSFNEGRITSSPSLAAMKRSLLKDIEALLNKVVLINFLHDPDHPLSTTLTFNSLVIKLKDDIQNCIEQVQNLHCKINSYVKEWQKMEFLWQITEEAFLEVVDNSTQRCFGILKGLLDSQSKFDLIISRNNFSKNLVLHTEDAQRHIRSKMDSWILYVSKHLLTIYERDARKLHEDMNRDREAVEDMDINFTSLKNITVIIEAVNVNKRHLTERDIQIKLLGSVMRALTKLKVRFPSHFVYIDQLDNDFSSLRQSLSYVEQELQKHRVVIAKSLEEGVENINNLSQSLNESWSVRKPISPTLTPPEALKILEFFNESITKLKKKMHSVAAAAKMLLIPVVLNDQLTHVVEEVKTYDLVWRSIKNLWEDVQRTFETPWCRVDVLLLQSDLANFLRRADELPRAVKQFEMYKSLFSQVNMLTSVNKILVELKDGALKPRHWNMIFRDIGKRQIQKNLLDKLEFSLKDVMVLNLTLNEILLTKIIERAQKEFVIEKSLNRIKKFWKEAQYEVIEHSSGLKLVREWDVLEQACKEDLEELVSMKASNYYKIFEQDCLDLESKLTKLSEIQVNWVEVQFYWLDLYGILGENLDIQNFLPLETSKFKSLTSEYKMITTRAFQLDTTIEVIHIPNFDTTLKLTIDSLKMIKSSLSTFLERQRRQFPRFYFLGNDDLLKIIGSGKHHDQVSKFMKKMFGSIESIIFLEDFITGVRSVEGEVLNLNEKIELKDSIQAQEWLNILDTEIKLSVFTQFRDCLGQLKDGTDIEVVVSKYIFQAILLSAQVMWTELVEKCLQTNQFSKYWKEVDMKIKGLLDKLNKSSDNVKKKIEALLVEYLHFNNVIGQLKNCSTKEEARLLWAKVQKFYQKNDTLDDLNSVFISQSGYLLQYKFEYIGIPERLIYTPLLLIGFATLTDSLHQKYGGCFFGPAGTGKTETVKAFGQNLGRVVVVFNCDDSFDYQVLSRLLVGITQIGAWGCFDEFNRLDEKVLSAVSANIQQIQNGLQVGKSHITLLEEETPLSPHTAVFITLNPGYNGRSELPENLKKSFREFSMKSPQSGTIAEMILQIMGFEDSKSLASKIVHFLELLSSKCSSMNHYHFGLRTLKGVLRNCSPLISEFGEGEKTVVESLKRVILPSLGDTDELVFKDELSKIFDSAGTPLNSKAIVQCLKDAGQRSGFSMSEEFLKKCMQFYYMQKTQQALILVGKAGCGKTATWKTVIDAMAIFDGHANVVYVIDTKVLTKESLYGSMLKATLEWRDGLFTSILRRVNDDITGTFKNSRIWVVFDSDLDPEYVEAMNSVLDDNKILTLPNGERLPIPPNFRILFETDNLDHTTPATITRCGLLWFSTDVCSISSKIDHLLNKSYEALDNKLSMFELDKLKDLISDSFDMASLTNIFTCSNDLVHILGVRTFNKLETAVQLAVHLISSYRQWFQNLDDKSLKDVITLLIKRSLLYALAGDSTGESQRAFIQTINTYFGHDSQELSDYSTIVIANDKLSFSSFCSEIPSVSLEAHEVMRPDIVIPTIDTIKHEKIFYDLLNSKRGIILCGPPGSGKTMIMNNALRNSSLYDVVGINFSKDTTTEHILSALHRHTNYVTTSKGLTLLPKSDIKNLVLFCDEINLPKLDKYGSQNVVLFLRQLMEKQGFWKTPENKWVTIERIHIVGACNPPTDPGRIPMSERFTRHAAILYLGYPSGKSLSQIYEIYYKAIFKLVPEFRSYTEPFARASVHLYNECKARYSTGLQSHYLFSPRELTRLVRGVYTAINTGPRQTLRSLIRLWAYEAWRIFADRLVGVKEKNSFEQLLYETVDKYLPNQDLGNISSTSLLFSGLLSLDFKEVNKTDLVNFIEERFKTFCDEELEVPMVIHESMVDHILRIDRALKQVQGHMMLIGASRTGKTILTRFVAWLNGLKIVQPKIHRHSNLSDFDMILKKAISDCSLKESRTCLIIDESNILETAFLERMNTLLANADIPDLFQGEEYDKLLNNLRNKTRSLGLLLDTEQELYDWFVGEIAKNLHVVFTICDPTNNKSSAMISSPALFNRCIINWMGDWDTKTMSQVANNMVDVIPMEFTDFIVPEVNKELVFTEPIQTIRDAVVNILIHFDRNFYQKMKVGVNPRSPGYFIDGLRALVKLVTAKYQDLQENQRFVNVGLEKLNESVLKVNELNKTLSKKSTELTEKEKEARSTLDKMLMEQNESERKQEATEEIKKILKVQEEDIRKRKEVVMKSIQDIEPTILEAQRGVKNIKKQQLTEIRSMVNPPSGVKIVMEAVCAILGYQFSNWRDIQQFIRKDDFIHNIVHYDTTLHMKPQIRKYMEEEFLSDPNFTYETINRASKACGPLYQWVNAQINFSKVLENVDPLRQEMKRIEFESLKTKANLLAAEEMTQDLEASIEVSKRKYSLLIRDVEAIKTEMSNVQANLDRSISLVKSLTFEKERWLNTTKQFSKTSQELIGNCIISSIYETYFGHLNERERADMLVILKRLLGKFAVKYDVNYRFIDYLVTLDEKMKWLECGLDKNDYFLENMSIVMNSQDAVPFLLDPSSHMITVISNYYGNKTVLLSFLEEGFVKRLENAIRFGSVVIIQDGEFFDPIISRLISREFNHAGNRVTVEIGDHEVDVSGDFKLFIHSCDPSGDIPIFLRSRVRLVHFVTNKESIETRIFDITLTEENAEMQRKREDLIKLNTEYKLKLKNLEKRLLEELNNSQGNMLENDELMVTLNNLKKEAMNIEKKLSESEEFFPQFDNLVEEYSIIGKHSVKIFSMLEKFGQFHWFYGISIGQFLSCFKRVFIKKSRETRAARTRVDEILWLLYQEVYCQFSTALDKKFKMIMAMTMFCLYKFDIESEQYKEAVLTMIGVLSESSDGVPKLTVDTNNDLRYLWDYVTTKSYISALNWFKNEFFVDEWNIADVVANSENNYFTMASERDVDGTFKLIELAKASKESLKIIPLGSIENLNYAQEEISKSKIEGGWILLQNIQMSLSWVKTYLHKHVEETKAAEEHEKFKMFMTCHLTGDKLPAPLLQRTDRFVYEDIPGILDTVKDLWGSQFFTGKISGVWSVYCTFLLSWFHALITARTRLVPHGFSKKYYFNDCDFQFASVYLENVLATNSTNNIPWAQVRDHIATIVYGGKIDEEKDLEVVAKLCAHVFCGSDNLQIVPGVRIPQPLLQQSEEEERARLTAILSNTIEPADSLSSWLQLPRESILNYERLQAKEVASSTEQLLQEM

B1: She1 (protein)
chain: MNDKLQEEHNEKDTTSQINGFTPPHMSIDFHSNNNSNIIETIGVSKRLGNSVLSELDSRASSKFEFLKDQSEQQYNGDKNNEPKSGSYNINEFFQAKHDSQFGQMESLDTHYTLLHTPKRKSQHAIPQDRSDSMKRSRPSRSIPYTTPVVNDITRRIRRLKLRNSLVNGNDIVARARSMQANSNINSIKNTPLSKPKPFMHKPNFLMPTTNSLNKINSAHRNTSSSSTASSIPRSKVHRSISIRDLHAKTKPVERTPVAQGTNSQLKNSVSVFDRLYKQTTFSRSTSMNNLSSGTSAKSKEHTNVKTRLVKSKTSGSLSSNLKQSTATGTKSDRPIWR
The Kd is the constant that tells how readily two partners part at equilibrium. A lower Kd goes with a tighter complex. As to B1, the Kd was < 0.2 nM.
